Measurements from PMC5947528.

B1: Arabidopsis thaliana TrxH4 (enzyme)
chain: MAAEEGQVIGCHTNDVWTVQLDKAKESNKLIVIDFTASWCPPCRMIAPIFNDLAKKFMSSAIFFKVDVDELQSVAKEFGVEAMPTFVFIKAGEVVDKLVGANKEDLQAKIVKHTGVTTA
B2: Arabidopsis thaliana TrxH2 (enzyme)
chain: MGGALSTVFGSGEDATAAGTESEPSRVLKFSSSARWQLHFNEIKESNKLLVVDFSASWCGPCRMIEPAIHAMADKFNDVDFVKLDVDELPDVAKEFNVTAMPTFVLVKRGKEIERIIGAKKDELEKKVSKLRA
B3: Arabidopsis thaliana TrxH1 (enzyme)
chain: MASEEGQVIACHTVETWNEQLQKANESKTLVVVDFTASWCGPCRFIAPFFADLAKKLPNVLFLKVDTDELKSVASDWAIQAMPTFMFLKEGKILDKVVGAKKDELQSTIAKHLA
B4: Arabidopsis thaliana TrxH3 (enzyme)
chain: MAAEGEVIACHTVEDWTEKLKAANESKKLIVIDFTATWCPPCRFIAPVFADLAKKHLDVVFFKVDVDELNTVAEEFKVQAMPTFIFMKEGEIKETVVGAAKEEIIANLEKHKTVVAAA
B5: human Trx1 (enzyme)
chain: MVKQIESKTAFQEALDAAGDKLVVVDFSATWCGPCKMIKPFFHSLSEKYSNVIFLEVDVDDCQDVASECEVKCMPTFQFFKKGQKVGEFSGANKEKLEATINELV

Target: E. coli 3'-phosphoadenosine 5'-phosphosulfate (PAPS) reductase (E. coli) (UniProt P17854)
Chain of UniProt P17854 (P17854 whole entry): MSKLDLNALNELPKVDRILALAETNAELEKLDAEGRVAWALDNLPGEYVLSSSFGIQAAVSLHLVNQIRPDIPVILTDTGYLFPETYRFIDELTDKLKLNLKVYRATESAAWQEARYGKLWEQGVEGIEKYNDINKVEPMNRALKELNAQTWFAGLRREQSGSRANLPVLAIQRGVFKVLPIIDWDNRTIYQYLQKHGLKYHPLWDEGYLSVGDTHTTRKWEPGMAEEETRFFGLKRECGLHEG

| Binder | Km of PR for the redoxin as electron donor (PAPS reductase assay) [µM] | kcat Km^-1 of PR with the redoxin, percent of that with E. coli Trx1 [%] | Vmax of PR with the redoxin as electron donor (PAPS reductase assay) [U mg^-1] |
| --- | --- | --- | --- |
| B1 | 26.1 |  |  |
| B2 | 43.1 | 23 |  |
| B3 |  | 18 |  |
| B4 | 17.8 | 154 | 13.2 |
| B5 |  | 59 |  |
